The results in this text go back to PMC7461574.

In the assay the target is non-glycosylated wild-type PAI-1 (PAI-1-wt) (human) (UniProt P05121).
Chain of UniProt P05121 (P05121 24-402): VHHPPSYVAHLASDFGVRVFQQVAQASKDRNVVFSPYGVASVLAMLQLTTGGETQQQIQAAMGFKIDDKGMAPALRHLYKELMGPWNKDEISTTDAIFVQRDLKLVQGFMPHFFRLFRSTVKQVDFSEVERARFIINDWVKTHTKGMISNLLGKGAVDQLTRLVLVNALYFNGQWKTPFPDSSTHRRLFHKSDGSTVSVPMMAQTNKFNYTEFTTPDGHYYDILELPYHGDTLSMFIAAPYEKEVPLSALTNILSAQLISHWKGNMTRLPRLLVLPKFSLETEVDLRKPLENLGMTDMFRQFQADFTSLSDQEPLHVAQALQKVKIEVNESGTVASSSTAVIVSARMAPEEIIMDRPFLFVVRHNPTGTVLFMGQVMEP

B1: VHH-s-a93 (Nb93) (VHH)
VHH: QVQLVESGGGLVQPGGSLRLSCAASGFSLDNYAIGWFRQAPGKEREGVSCISSSDGSTYYTDSVEGRFTISRDNAKNTVYLQMNSLKPDDTAVYYCAADYGSSWCTFNGMDYWGQGTQVTVSS
Molecule B1 registered an IC50 of inhibition of PAI-1-wt activity, chromogenic plasminogen-coupled assay with tPA (residual tPA activity; pair blocked: PAI-1/tPA), Nb93 1 to 512 nM of 202 nM and a maximum inhibition of PAI-1-wt activity, chromogenic plasminogen-coupled assay with tPA (pair blocked: PAI-1/tPA), Nb93 1 to 512 nM of 55%.
